Reference: paper PMC8979947
One block for each molecule: values may come before it.

Key:
[1] = biological target: talin R3-IVVI domain
[2] = biological target: talin R3-IVVI domain; remark: listed apart in the source
[3] = biological target: talin R3-IVVI domain; remark: listed apart in the source
[4] = biological target: talin R3-IVVI domain; remark: listed apart in the source

intersection force of R3-IVVI, chevron plot, with Hsp40; control 9.7 pN [1]: 7.8 pN
Molecule: Hsp40, human recombinant protein (from UniProt P25685 1-340) (natural protein)

intersection force of R3-IVVI, chevron plot, with Hsp70; control 9.7 pN [1]: 7.2 pN
half-point force of R3-IVVI with Hsp70 [3]: 7.2 pN
half-point force of R3-IVVI with Hsp70 and its inhibitor pifithrin-µ (PFT-µ, binds the substrate-binding domain of Hsp70) [3]: 9.5 pN
Molecule: Hsp70, human recombinant protein (from UniProt P0DMV8 1-641) (natural protein)

intersection force (equal unfolding and refolding rates) of R3-IVVI, force-clamp chevron plot, with 60 µM DsbA; control 9.7 pN [2]: 14.9 pN
B1: oxidized DsbA (enzyme)
chain: AQYEDGKQYTTLEKPVAGAPQVLEFFSFFCPHCYQFEEVLHISDNVKKKLPEGVKMTKYHVNFMGGDLGKDLTQAWAVAMALGVEDKVTVPLFEGVQKTQTIRSASDIRDVFINAGIKGEEYDAAWNSFVVKSLVAQQEKAAADVQLRGVPAMFVNGKYQLNPQGMDTSNMDVFVQQYADTVKYLSEKK
modifications: oxidized (0.3% H2O2 overnight)

Second part, the molecule before the results:

Molecule: DnaJ (from UniProt P08622 1-376) (natural protein)
intersection force (equal unfolding and refolding rates) of R3-IVVI, force-clamp chevron plot, with 1 µM DnaJ; control 9.7 pN [2]: 7.9 pN

Molecule: DnaK (from UniProt P0A6Y8 1-638) (natural protein)
intersection force (equal unfolding and refolding rates) of R3-IVVI, force-clamp chevron plot, with 3 µM apo-DnaK; control 9.7 pN [2]: 6 pN
unfolding force (confirmed as intersection force of the chevron plot) of R3-IVVI with DnaK + DnaJ + ADP (DnaKJ-ADP) [4]: 6.3 pN
unfolding force (confirmed as intersection force of the chevron plot) of R3-IVVI with DnaK and ATP; ~6 pN with apo-DnaK [4]: 7.6 pN
